4 molecules from patent publication USRE45968 (SIGMA TAU INDUSTRIE FARMACEUTICHE RIUNITE S PA, dated 2016) can be followed below.

The target of assay [1] is T1, Human CEA protein, purified from colon carcinoma and liver metastases (human, UniProt P06731 35-685, limits assumed).
T1 construct: Bought; Biotinylated for the selections; also called carcino-embryonic antigen
T1 sequence (looked up): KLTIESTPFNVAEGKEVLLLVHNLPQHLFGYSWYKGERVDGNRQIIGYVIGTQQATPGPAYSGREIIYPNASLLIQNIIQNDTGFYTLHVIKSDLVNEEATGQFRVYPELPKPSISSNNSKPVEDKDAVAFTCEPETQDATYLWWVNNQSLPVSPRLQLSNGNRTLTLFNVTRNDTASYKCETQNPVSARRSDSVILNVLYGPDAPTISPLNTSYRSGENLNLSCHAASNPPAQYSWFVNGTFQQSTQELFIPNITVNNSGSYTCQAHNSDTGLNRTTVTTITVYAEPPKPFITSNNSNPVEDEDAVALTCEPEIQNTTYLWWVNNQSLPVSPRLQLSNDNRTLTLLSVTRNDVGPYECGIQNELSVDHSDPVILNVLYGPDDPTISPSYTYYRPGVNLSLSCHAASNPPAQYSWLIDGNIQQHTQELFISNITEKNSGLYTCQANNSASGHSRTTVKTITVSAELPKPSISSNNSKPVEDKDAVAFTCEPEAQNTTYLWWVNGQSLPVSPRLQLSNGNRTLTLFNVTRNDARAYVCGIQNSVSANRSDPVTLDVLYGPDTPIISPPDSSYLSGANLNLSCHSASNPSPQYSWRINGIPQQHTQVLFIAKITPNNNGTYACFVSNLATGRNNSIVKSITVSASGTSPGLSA
Kind of assay: Surface Plasmon Resonance (Biacore), soluble scFv.

Assay [2] deals with T2, GST-fused MUC1 recombinant protein, containing a 107-aa MUC1 sequence, containing 5.3 repeats (UniProt P08515 1-218 = GST; P15941 126-232).
T2 construct: Biotinylated for the selections; also called Recombinant MUC1 protein; MUC1 tumor antigen
Kind of assay: Surface Plasmon Resonance (Biacore), soluble scFv.

B1: CB37/3B scFv antibody, soluble form (scFv)
scFv: RTMEEVQLVQSGGGLIQPGGSLRLSCVASEFNVRSNYMSWVRQAPGKGLEWVSVMYDGGSTYYADSVKGRFTISRDNSKNTVYLQMNSLRAEDTAVYYCARGGLGLPTIAPWEIWGQGTMVTVSSGGGGSGGGGSGGGGSSYVLTQPPSVSVAPGKTATITCAGNNIGSNSVYWYQQKPGLAPVLVVYDDRDRPSGIHERFSGSKSGNTATLTISRVEAGDEADYSCQVWDPSSDHLYVFGTGTQLTVLGAA
notes: domain: first two amino acids of the mature AP protein; not shown: FLAG/His-tail at the carboxyl-terminus (pKM16)
Take B1: in assay [1], the Kd is 3.66 nM.

B2: CB37/9C scFv antibody, soluble form (scFv)
scFv: RTMEEVQLVQSGGGLIQPGGSLRLSCVASEFNVRSNYMSWVRQAPGKGLEWVSVMYDGGSTYYADSVKGRFTISRDNSKNTVYLQMNSLRAEDTAVYYCARGGLGLPTIASWEIWGQGTMVTVSSGGGGSGGGGSGGGGSSYVLTQPPSVSVAPGKTATITCAGNNIGSNSVYWYQQKPGLAPVLVVYDDRDRPSGLPGRFSGSKSGNTATLTISRVEAGDEADYSCQVWDPSSDHLYVFGTGTQLTVLGAA
notes: domain: first two amino acids of the mature AP protein; cloned in pKM16 and produced in soluble form; not shown: FLAG/His-tail at the carboxyl-terminus (pKM16)
B2 registered a Kd in assay [1] of 1.42 nM.

B3: MB5/C′3 scFv antibody, soluble form (scFv)
scFv: RTMEQVQLVQSGAEVKKPGASVKVSCKASGYTFTASYMHWVRQAPGQGLEWMGWFNPNSGGTNYAQKFQGRVTMTGDTSTSTGYMELSRLTSDDAAVYYCARDRASAMGVWGQGTLVTVSSGGGGSGGGGSGGGGSQSALTQPASVSGSPGQSITISCTGTSSDVGGYNYVSWYQQHPGKAPKLMIYDVTNRPSGVSSRFSGSKSGNTASLTISGLQTEDEADYYCNSFTSSNTYVFGTGTQLTVLGAA
notes: as for B2
As for B3, the Kd in assay [2] came to 23.1 nM.

B4: MB5/C′1 scFv antibody, soluble form (scFv)
scFv: RTMEEVQLQESGAEVKKPGASVKVSCKASGYTFTASYMHWVRQAPGQGLEWMGWFNPNSGGTNYAQKFQGRVTMTGDTSTSTGYMELSRLTSDDAAVYYCARDRASAMGVWGQGTLVTVSSGGGGSGGGGSGGGGSQSALTQPASVSGSPGQSITISCTGTSSDVGGYNYVSWYQQHPGKAPKLMIYDVSHRPSGISNRFSGSKSGNTASLTISRLQAEDEADYYCSSYTSSNTFIFGTGTQLTVLGAA
notes: domain: first two amino acids of the mature AP protein; cloned in pKM16 and produced in soluble form; also called MBB5/C′1; not shown: FLAG/His-tail at the carboxyl-terminus (pKM16)
In the case of B4, in assay [2], the Kd was 9.46 nM.
